Reference: US20070248589A1 (GOVERNMENT OF THE UNITED STATES OF AMERICA AS REPRESENTED …, published 2007)

Columns and labels:
GST-SPATIAL(L) = biological target: T1, GST-SPATIAL(L) (Mus musculus, UniProt Q7TSD4); assay: GST pulldown assay with GST-SPATIAL long isoform; format: binding; conditions: 35S-methionine labeled in vitro translated protein
T1 construct: made in house
T1 sequence (Q7TSD4 with tags, fused parts or gaps isoform Q7TSD4-6 limits assumed): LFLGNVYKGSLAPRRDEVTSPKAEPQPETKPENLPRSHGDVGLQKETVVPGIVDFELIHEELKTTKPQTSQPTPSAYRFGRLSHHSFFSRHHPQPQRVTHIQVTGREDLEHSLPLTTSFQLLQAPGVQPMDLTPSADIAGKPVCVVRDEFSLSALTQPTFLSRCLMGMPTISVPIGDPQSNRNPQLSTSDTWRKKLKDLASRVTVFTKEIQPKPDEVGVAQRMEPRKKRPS
Protocol: Eighteen cDNA clones identified in the yeast two-hybrid system were tested in an in vitro glutathione-S-transferase (GST) pulldown assay, as described in Ausubel et al., Current Protocols in Molecular Biology, Greene Publishing Associates, updated November 2003, Chapter 20, Analysis of Protein Interactions, Unit 20.2, Affinity Purification of Proteins Binding to GST Fusion Proteins.
Briefly, a GST-SPATIAL fusion construct was produced by cloning SPATIAL cDNA(s) into pGEx5X1 expression vector using standard molecular cloning techniques. GST or GST-SPATIAL fusion protein were expressed in 1-1000 ml bacterial cultures grown for 3-4 hours until OD600 reached 0.5. Then, plasmid expression was induced for 1.5-4 hours by the addition of ITPG to a final concentration of 0.11 mM. GST or GST-fusion proteins were purified using glutathione-Sepharose beads as described in Ausubel et al., Current Protocols in Molecular Biology, Greene Publishing Associates, updated November 2003, Chapter 20, Analysis of Protein Interactions, Unit 20.2, Affinity Purification of Proteins Binding to GST Fusion Proteins.
A coupled in vitro transcription and translation system (Promega) was used according to the manufacturer's instructions to produce radiolabeled protein from cDNAs to be tested. Radiolabeled proteins were mixed with either purified GST or GST-SPATIAL. Then, GST-containing protein complexes were purified by centrifugation from the reaction mixtures using glutathione-coated Sepharose beads. Bound proteins were eluted from the beads with SDS-PAGE loading buffer heated to 72-85° C., separated on polyacrylamide gels, and visualized by autoradiography. Specific interactions between GST-SPATIAL and in vitro translated proteins were indicated by the presence of a radiolabeled in vitro translated protein in the GST-SPATIAL-containing samples, but not in the GST-alone samples.
GST pulldown assays were performed as described in Example 9 using GST-SPATIAL(L) and GST-SPATIAL(S) and each of the Uba3 mutants described in this example.

293T cells = assay: Uba3 co-transfection with SPATIAL-EGFP, growth arrest; format: cell-based, human; conditions: transient over expression, 0.5, 2.5 or 4.5 μg/well Uba3 plasmid, FIG. 9
Protocol: To determine whether Uba3 is involved in SPATIAL mediated growth suppression, co-transfections were done using increasing amounts of an Uba3 expression vector with constant amounts of SPATIAL-EGFP or EGFP.
4×10^5 293T cells were transfected in 6 well plates using 5 μg of a mixture of plasmids. The plasmids used were pEGFP-N1 (0.5 μg/well), pEGFP-SPATIAL(L) (0.5 μg/well), pcDNA3.1 Myc/his M Uba3 (0.5, 2.5 or 4.5 μg/well) (pcDNA3.1 myc/His may be obtained from Invitrogen), and pWL-neo (4 or 2 μg/well). The plasmid pWL-neo (Stratagene) was used as a control plasmid to make sure that the total DNA in each transfection totaled 5 μg. Transfections were done using Lipofectamine 2000 using manufacturers instructions (Invitrogen).
Twenty four hours after transfection, the cells were trypsinized and re-plated onto 10 cm dishes and cultured for up to 6 days. The number of EGFP-positive cells were determine at 24, 36 and 144 hours after transfection by harvesting the cells, counting and FACS analysis to determine the percentage of EGFP-positive cells.

[1] = biological target: T2, Uba3/AppBP1 protein complex (Mus musculus, UniProt Q8C878); assay: GST pulldown and immunoprecipitation, Uba3 and AppBP1 interaction; format: binding; conditions: FIG. 4
T2 construct: Myc-tagged, full-length mouse Uba3; host or cells: cell-free: TNT Coupled Reticulocyte Lysate System, 35S-methionine labelled
T2 sequence (Q8C878 22-462 V120X/V142X/I148X/P243X limits assumed): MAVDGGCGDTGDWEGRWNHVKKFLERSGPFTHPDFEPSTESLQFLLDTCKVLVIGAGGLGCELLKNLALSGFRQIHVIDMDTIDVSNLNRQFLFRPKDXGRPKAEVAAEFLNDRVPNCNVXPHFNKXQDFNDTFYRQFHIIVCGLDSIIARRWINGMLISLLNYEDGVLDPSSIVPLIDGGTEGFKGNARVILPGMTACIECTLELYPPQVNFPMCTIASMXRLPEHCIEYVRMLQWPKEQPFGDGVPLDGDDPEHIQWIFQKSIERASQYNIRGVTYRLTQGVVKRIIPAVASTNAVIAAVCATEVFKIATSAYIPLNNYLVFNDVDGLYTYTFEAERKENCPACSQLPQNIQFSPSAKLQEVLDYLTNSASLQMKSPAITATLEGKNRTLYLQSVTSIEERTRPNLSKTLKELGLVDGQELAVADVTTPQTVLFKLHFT
Protocol: To determine whether SPATIAL has an effect on the neddylation pathway, cDNAs for each of the components of the Nedd8 conjugation pathway were obtained from EST depositories (AppBP1, GenBank Accession No. BC00480; Uba3, GenBank Accession No. BC002002). These cDNAs were used to produce radiolabeled proteins by in vitro transcription and translation.
The effect of SPATIAL on the first step of the pathway, the interaction between Uba3 and AppBP1, was tested using a GST pulldown assay
In a typical GST pulldown assay, GST and GST-SPATIAL were prepared from transformed bacterial cultures as previously described (e.g., Ausubel et al., Current Protocols in Molecular Biology, Greene Publishing Associates, updated November 2003, Chapter 20, Analysis of Protein Interactions, Unit 20.2, Affinity Purification of Proteins Binding to GST Fusion Proteins). After purification, GST and GST-SPATIAL proteins were mixed with glutathione-sepharose beads and the mixtures were frozen in 200 μl aliquots. The amount of protein bound to the beads was quantitated using a colormetric assay (BCA assay; Pierce-Endogen).
Uba3 and AppBP1 were in vitro translated and ^35S-methionine labeled using 0.5 μg of the respective expression plasmids in a 50 μl reaction using TNT® Coupled Reticulocyte Lysate Systems (Promega) by following the manufacturer's instructions. […]

| Molecule | interaction with GST-SPATIAL(L) (GST-SPATIAL(L)) | effect on growth inhibition of SPATIAL-EGFP transfected cells (293T cells) | effect on Uba3 binding to AppBP1 [1] |
| --- | --- | --- | --- |
| Uba3: catalytic subunit of NEDD8 activating enzyme, a 441-amino acid protein (SEQ ID NO: 6) (protein, listed as Mus musculus, (99)..(99) The ′Xaa′ at location 99 stands for Val.; (121)..(121) The ′Xaa′ at location 121 stands for Val.; (127)..(127) The ′Xaa′ at location 127 stands for Ile.; (222)..(222) The ′Xaa′ at location 222 stands for Pro.) MAVDGGCGDTGDWEGRWNHVKKFLERSGPFTHPDFEPSTESLQFLLDTCKVLVIGAGGLGCELLKNLALSGFRQIHVIDMDTIDVSNLNRQFLFRPKDXGRPKAEVAAEFLNDRVPNCNVXPHFNKXQDFNDTFYRQFHIIVCGLDSIIARRWINGMLISLLNYEDGVLDPSSIVPLIDGGTEGFKGNARVILPGMTACIECTLELYPPQVNFPMCTIASMXRLPEHCIEYVRMLQWPKEQPFGDGVPLDGDDPEHIQWIFQKSIERASQYNIRGVTYRLTQGVVKRIIPAVASTNAVIAAVCATEVFKIATSAYIPLNNYLVFNDVDGLYTYTFEAERKENCPACSQLPQNIQFSPSAKLQEVLDYLTNSASLQMKSPAITATLEGKNRTLYLQSVTSIEERTRPNLSKTLKELGLVDGQELAVADVTTPQTVLFKLHFT | specifically bound | overcomes the growth inhibition | – |
| GST-SPATIAL: glutathione-S-transferase SPATIAL fusion protein (protein, left off: a dimerising Fc or GST, glutathione-S-transferase SPATIAL fusion protein) LFLGNVYKGSLAPRRDEVTSPKAEPQPETKPENLPRSHGDVGLQKETVVPGIVDFELIHEELKTTKPQTSQPTPSAYRFGRLSHHSFFSRHHPQPQRVTHIQVTGREDLEHSLPLTTSFQLLQAPGVQPMDLTPSADIAGKPVCVVRDEFSLSALTQPTFLSRCLMGMPTISVPIGDPQSNRNPQLSTSDTWRKKLKDLASRVTVFTKEIQPKPDEVGVAQRMEPRKKRPS | – | – | interferes with Uba3 binding to AppBP1 |
